Source: patent publication US20150037339A1 (Regeneron, published 2015)

Tests used:
Activin A [1] = target: T1, Activin A (human, UniProt P08476 311-426); test: cell-based or functional assay
T1 sequence: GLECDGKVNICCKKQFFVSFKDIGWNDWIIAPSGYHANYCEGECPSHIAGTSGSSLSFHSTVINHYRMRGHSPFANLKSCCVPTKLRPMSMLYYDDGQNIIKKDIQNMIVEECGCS

Activin B [2] = target: T2, Activin B (human, UniProt P09529 293-407); test: cell-based or functional assay
T2 chain: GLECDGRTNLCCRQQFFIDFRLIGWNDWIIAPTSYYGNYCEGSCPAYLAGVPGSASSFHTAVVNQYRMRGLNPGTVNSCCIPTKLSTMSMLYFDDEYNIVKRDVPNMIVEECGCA

Activin AB [3] = target: T3, Activin AB (human, UniProt P08476 311-426; P09529 293-407); test: cell-based or functional assay
T3 chain 1: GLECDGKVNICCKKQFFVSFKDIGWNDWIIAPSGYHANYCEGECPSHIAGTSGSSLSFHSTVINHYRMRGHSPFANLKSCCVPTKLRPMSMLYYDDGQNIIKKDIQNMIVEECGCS
T3 chain 2: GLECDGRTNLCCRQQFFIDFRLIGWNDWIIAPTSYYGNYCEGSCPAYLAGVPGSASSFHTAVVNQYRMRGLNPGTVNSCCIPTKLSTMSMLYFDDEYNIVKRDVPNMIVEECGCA

Activin AC [4] = target: T4, Activin AC (human, UniProt P55103 237-352); test: cell-based or functional assay
T4 sequence 1: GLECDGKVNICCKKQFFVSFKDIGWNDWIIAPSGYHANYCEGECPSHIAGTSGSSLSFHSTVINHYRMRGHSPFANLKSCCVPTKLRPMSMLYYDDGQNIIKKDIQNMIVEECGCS
T4 sequence 2: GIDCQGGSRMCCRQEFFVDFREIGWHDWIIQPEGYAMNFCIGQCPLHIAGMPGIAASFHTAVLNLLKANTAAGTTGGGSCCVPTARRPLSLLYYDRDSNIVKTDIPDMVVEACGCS

Activin AB [5] = target: T3, Activin AB; test: SPR (Biacore), mAb captured on anti-Fc, Activin AB injected, 25 C
Procedure: (§1) Antibody-antigen association was monitored for 240 seconds while dissociation in buffer was monitored for 600 seconds. Kinetic association and dissociation rate constants were determined by processing and fitting the data using Scrubber software version 2.0c. Binding equilibrium dissociation constants (KD) and dissociative half-lives (t_{1/2}) were then calculated from the kinetic rate constants as: KD (M)=kd/kₐ and t_{1/2} (min)=[ln 2/(60*kd)]. (NB=no binding observed under the conditions used; NT=not tested).

Activin AB [6] = target: T3, Activin AB; test: SPR (Biacore), mAb captured on anti-Fc, Activin AB injected, 37 C
Procedure: as §1

Activin AC [7] = target: T4, Activin AC; test: SPR (Biacore), mAb captured on anti-Fc, Activin AC injected, 25 C
Procedure: as §1

Activin AC [8] = target: T4, Activin AC; test: SPR (Biacore), mAb captured on anti-Fc, Activin AC injected, 37 C
Procedure: as §1

Activin A [9] = target: T1, Activin A; test: SPR (Biacore 4000), captured on anti-human Fc, 200 nM ligand injected, 37 C
Procedure: (§2) For the binding experiment, a Biacore 4000 instrument was used. […] All Biacore binding studies were performed in HBS-T running buffer (0.01 M HEPES pH 7.4, 0.5 M NaCl, 3 mM EDTA, 0.5 mg/ml bovine serum albumin, 0.05% v/v Surfactant P20). […] All binding measurements were performed at 37° C. […] Over the captured antibody surface was injected the TGF-beta family ligands through concentrations ranging from 3.1 nM to 200 nM.

Activin B [10] = target: T2, Activin B; test: as above
Procedure: as §2

Activin AB [11] = target: T3, Activin AB; test: as above
Procedure: as §2

Activin AC [12] = target: T4, Activin AC; test: as above
Procedure: as §2

hBMP2 = target: T5, hBMP2 (human, UniProt P12643 283-396); test: as above
T5 construct: Bought protein; also called BPM2
T5 sequence (P12643 283-396 limits assumed): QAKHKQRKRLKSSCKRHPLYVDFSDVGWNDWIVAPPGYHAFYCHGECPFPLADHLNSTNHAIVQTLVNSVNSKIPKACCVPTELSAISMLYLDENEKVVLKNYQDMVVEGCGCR
Procedure: as §2

hBMP4 = target: T6, hBMP4 (human, UniProt P12644 293-408); test: as above
T6 construct: Bought protein
T6 sequence (looked up): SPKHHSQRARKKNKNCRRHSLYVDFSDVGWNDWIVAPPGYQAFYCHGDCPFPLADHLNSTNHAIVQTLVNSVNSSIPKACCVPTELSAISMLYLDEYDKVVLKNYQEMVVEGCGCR
Procedure: as §2

hBMP6 = target: T7, hBMP6 (human, UniProt P22004 382-513, limits assumed); test: as above
T7 construct: Bought protein
T7 sequence (looked up): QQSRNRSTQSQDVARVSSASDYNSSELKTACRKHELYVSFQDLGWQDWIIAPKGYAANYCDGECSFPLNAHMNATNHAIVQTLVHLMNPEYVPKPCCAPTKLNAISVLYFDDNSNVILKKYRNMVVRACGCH
Procedure: as §2

hBMP9 = target: T8, hBMP9 (human, UniProt Q9UK05 320-429); test: as above
T8 construct: Bought protein
T8 sequence (looked up): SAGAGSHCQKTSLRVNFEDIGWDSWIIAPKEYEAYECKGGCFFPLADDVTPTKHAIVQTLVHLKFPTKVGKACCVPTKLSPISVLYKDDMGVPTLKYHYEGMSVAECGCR
Procedure: as §2

GDF8 = target: T9, GDF8 (human, UniProt O14793 267-375); test: as above
T9 construct: Bought (R&D Systems #788-G8); also called hGDF8; growth and differentiation factor-8
Procedure: as §2

GDF11 = target: T10, GDF11 (human, UniProt O95390 299-407); test: as above
T10 construct: Bought protein; also called hGDF11
T10 sequence (O95390 299-407 limits assumed): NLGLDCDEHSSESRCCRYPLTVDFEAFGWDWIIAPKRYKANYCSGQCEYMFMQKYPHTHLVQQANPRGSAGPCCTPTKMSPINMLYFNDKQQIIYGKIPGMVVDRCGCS
Procedure: as §2

B1: H4H10436P2 (antibody, human IgG4, V domains shown)
VH: QVQLVESGGGVVQPGRSLRLTCVASGFTVSSYGMHWVRQAPGKGLEWVAVMFYDESKKYYADSVKGRFTISRDNSKNTLYLQMNSLRVEDTAVYYCARDEQLDFEYWGQGTLVTVSS
VL: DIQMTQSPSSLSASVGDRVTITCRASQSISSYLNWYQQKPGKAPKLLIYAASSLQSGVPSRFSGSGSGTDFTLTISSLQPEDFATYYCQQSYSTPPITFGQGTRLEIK
Activin A [1]
  IC50 [M], inhibition of 100 pM Activin A in A204/CAGAx12-Luc Smad2/3-luciferase bioassay: 2e-10 M
Activin B [2]
  IC50 [M], inhibition of 50 pM Activin B in A204/CAGAx12-Luc Smad2/3-luciferase bioassay: 1.3e-10 M
Activin AB [3]
  IC50 [M], inhibition of 30 pM Activin AB in A204/CAGAx12-Luc Smad2/3-luciferase bioassay: 1.4e-10 M
Activin AC [4]
  IC50 [M], inhibition of 4 nM Activin AC in A204/CAGAx12-Luc Smad2/3-luciferase bioassay: 1.3e-09 M
Activin AB [5]
  50 nM Ag Bound (RU): 28.2 RU
  Kd: 0.0341 nM
  koff: 0.000261 s⁻¹
  kon: 7.66e+06 M⁻¹ s⁻¹
  t1/2: 44.2 min
Activin AB [6]
  50 nM Ag Bound (RU): 33.9 RU
  Kd: 0.0443 nM
  koff: 0.000458 s⁻¹
  kon: 1.03e+07 M⁻¹ s⁻¹
  t1/2: 25.2 min
Activin AC [7]
  50 nM Ag Bound (RU): 30.1 RU
  Kd: 2.24 nM
  koff: 0.00156 s⁻¹
  kon: 698000 M⁻¹ s⁻¹
  t1/2: 7.4 min
Activin AC [8]
  50 nM Ag Bound (RU): 32.6 RU
  Kd: 3.75 nM
  koff: 0.00331 s⁻¹
  kon: 881000 M⁻¹ s⁻¹
  t1/2: 3.5 min
Activin A [9]
  binding response (resonance units) for 200 nM ligand: 56.5 RU
Activin B [10]
  binding response (resonance units) for 200 nM ligand: 60.1 RU
Activin AB [11]
  binding response (resonance units) for 200 nM ligand: 54.3 RU
Activin AC [12]
  binding response (resonance units) for 200 nM ligand: 55.6 RU
hBMP2
  binding response (resonance units) for 200 nM ligand: 14.9 RU
hBMP4
  binding response (resonance units) for 200 nM ligand: 19.3 RU
hBMP6
  binding response (resonance units) for 200 nM ligand: 4 RU
hBMP9
  binding response (resonance units) for 200 nM ligand: 11.7 RU
GDF8
  binding response (resonance units) for 200 nM ligand: -0.5 RU
GDF11
  binding response (resonance units) for 200 nM ligand: 0 RU
